“And” between values parts separate entries of the source, which are not always exact repeats. Equal values may be shown once.
Legend:
HSV-1 strain F = test: Infectious center assay; assay type: cell-based, Herpes Simplex Virus (HSV)-1; conditions: 24 h post-infection, n=3
Method: Twenty-four hours post-infection, PHK were treated with 0.05% Trypsin-EDTA (Invitrogen/Gibco) for 5 min at 37° C. followed by gently scraping to lift the cells, washed 3 times in DMEM containing 1% HI-FBS, and vortexed for 30 sec to disrupt cell clumps. Alive cells were counted using Trypan blue exclusion and scalar PHK dilutions (1000 to 1 cells in 1 ml of media) were plated onto pre-grown monolayers of Vero cells in six well plates. After 2 h, 1 ml of DMEM containing 5% HI-FBS and 0.4% human-γ-globulin (Sigma; final concentration 0.5 mg/ml) was added to each well. After 3 days incubation at 37° C., cells were fixed (75% MeOH/25% acetic acid) and stained with 0.1% crystal violet. Plaques were counted by 2 independent investigators and results expressed as percent of infected PHK.

[1] = test system: occludin, ZO-1, nectin-1, E-cadherin or filaggrin; test: qPCR of other barrier proteins after claudin-1 siRNA in PHK; assay type: cell-based, human; conditions: siRNA 100 nM, n=5/group
Method: (§1) QPCR was performed using the iScript™ cDNA Synthesis kit and iQ™ SYBER Green Supermix assay system (Bio-Rad Laboratories). All PCR amplifications were carried out in triplicate on an iQ5 Multicolor real-time PCR detection system (Bio-Rad). Primers were designed and synthesized by Integrated DNA Technologies (Table 1). Relative gene expression was calculated by using the 2^−ΔΔCt method. Livak and Schmittgen, “Analysis of Relative Gene Expression Data Using Real-Time Quantitative PCR and the 2(−Delta Delta C(T)) Method,” Methods 25:402-8 (2001), which is hereby incoporated by reference in its entirety. The normalized Ct value of each sample was calculated using GAPDH as an endogenous control gene.
(§2) PHK were plated on glass coverslips at 2-3×10^5 cells/well in a 6-well plate or at 2-3×10^4 cells/filter in Transwell insert (Costar; PET membrane, 0.4 μm pore size, 6.5 mm insert) in Keratinocyte-SFM without antibiotics. The next day after plating, cells were transfected with claudin-1 specific or control (scrambled) siRNAs (Santa Cruz) using Lipofectamine™ 2000 transfection Reagent (Invitrogen). TEER and permeability experiments were conducted 48 hours after PHK were switched to differentiation media.

occludin = test: Western blot of occludin after CLDN1 siRNA in PHK; assay type: cell-based, human; conditions: 48 h
Method: PHK were lysed on ice in RIPA lysis buffer (20 mM Tris, 50 mM NaCl, 2 mM EDTA, 2 mM EGTA, 1% sodium deoxycholate, 1% TX-100, and 2% SDS, pH 7.4), with 1:100 Protease Inhibitor Cocktail (Sigma), 1:100 Phosphatase Inhibitor Cocktail ([…] for 30 min at 4° C. The samples were heated at 95° C. for 10 min and then centrifuged at 14,000 rpm for 15 min. Forty μg of protein, determined by BCA (Pierce) in NuPage LDS Sample Buffer (Invitrogen) was applied to 4-12% NuPage Bis-Tris gels (Invitrogen). Electrophoresis was performed under reducing conditions with MES SDS Buffer (Invitrogen). Membranes were incubated in blotting solution (5% non-fat dry milk in PBS+0.05% Tween 20) at RT for 1 h and then incubated with primary antibodies; claudin-1 (JAY.8; Zymed), occludin (OC/3F10; Zymed) and GAPDH (FL-355; Santa Cruz). An HRP-linked secondary antibody (GE Healthcare) was used with ECL (GE Healthcare) to visualize bands by autoradiography with Kodak BioMax MR film. The pixel intensity of each band was estimated with Image J.
PHK were plated on glass coverslips at 2-3×10^5 cells/well in a 6-well plate or at 2-3×10^4 cells/filter in Transwell insert (Costar; PET membrane, 0.4 μm pore size, 6.5 mm insert) in Keratinocyte-SFM without antibiotics. […]

nectin-1 (PVRL1) = test: qPCR of nectin-1 (PVRL1) after CLDN1 siRNA in PHK; assay type: cell-based, human
Method: as §2, with “a E-well” for “a 6-well”, “Transwell inserts” for “Transwell insert”, “(Invitrogen).” for “(Invitrogen). TEER and permeability experiments were conducted 48 hours after PHK were switched to differentiation media.”
Reverse transcription was performed from total RNA using iScript™ cDNA Synthesis kit (Bio-Rad) according to the manufacturer's protocol. qPCR was performed using the iQ™ SYBER Green Supermix assay system from Bio-Rad Laboratories. All PCR amplifications were carried out in triplicate on an iQ5 Multicolor real-time PCR detection system (Bio-Rad). Primers were designed and synthesized by Integrated DNA Technologies. […]
Relative gene expression was calculated by using the […], in which Ct indicates cycle threshold, the fractional cycle number where the fluorescent signal reaches detection threshold. Livak and Schmittgen, “Analysis of Relative Gene Expression Data Using Real-Time Quantitative PCR and the 2(−Delta Delta C(T)) Method,” Methods 25:402-8 (2001), which is hereby incorporated by reference in its entirety. The normalized Ct value of each sample was calculated using GAPDH as an endogenous control gene.

connexin-26 (GJB2) = test: qPCR of connexin-26 (GJB2) after claudin-1 knockdown in PHK; assay type: cell-based, human; conditions: claudin-1 siRNA transfected PHK, n=6
Method: as §1, §2

claudin-1 transcripts = test: qPCR of claudin-1 transcripts after siRNA transfection of PHK; assay type: cell-based, human; conditions: siRNA 100 nM
Method: as §1, §2
siRNA approach was used to selectively downregulate claudin-1 in primary human keratinocytes (PHK). […] There was no effect on mRNA expression of occludin, ZO-1, nectin-1, E-cadherin or filaggrin (n=5/group). Relative gene expressions were calculated by using the 2^−ΔΔCt method, in which Ct indicates cycle threshold, the fractional cycle number where the fluorescent signal reaches detection threshold. The normalized Ct value of each sample was calculated using GAPDH as endogenous control gene. The specific sequence information for the claudin-1 siRNA (h) is detailed below. (This siRNA is a pool of 3 separate strands.)

B1: CLDN1 siRNA: claudin-1 specific siRNA (Santa Cruz), a pool of 3 separate strands, SEQ ID NO: 10-15 (nucleic acid)
chain 1: UACAUAGGCAUAGUUCAUGNN
chain 2: CAUGAACUAUGCCUAUGUANN
chain 3: AACGUAUGCAGUUAAUUCCNN
chain 4: GGAAUUAACUGCAUACGUUNN
chain 5: UGAAGAUCUAUGUAUGUGGNN
chain 6: CCACAUACAUAGAUCUUCANN
modifications: chemistry not given here
With B1 the “PHK infected with HSV-1” value (HSV-1 strain F) was 38±6% and 38±6.43%, the “mRNA expression of occludin, ZO-1, nectin-1, E-cadherin or filaggrin” value ([1]; listed as Cldn1 siRNA) was “no effect” and the “mRNA expression of occludin, ZO-1, nectin-1, E-cadherin or filaggrin” value ([1]; listed as claudin-1 siRNA) was “no changes”. The “occludin protein by Western blot” value (occludin) was “No change”, the “nectin-1 mRNA expression, effect of CLDN1 silencing” value (nectin-1 (PVRL1); n=5) was “not affected” and the “nectin-1 (PVRL1) mRNA relative expression” value (nectin-1 (PVRL1); siRNA 100 nM, n=5/group) was 0.99±0.16. The “connexin-26 (GJB2) expression over control” value (connexin-26 (GJB2)) was 1.7±0.8 fold, the “reduction in claudin-1 transcripts compared to control transfected cells” value (claudin-1 transcripts) was 50% and the “claudin-1 transcripts (MEAN±SEM)” value (claudin-1 transcripts; n=5/group) was 5.42±0.8 RVU. For the same molecule, the “claudin-1 transcripts relative to control transfected cells” value (claudin-1 transcripts; n=5/group) was 0.5 fold and the “claudin-1 transcripts relative to control transfected cells” value (claudin-1 transcripts; n=5/group, listed as Cldn1 siRNA) was 0.5%±0.06 fold.

From US20130045267A1, “METHODS OF USING AGENTS THAT MODULATE CLAUDIN EXPRESSION” (priority 2010, published 2013)
